Where “and” joins values, the source holds several entries; their conditions need not be identical. Identical values can stand only once. Positions of bridges follow the written chain, without caps; N, C: chain ends. Non-standard residues stand in square brackets, D forms with d. No end group written: not given here. d2Nal = N[C@H](Cc1ccc2ccccc2c1)C(=O)O; dAbu = CC[C@@H](N)C(=O)O
B1: GFB-117 (designed binder)
peptide: GDND
modifications: linker N-C via 3‑aminomethyl‑5‑aminobenzamide; also: four loops on But-Calix scaffold
B2: GFB-134 (designed binder)
peptide 1: GDGY
peptide 2: GDDY
modifications: also: 3 GDGY loops and 1 GDDY loop on But-Calix scaffold, linker to a chain's N/C-terminus via 3-aminomethyl-5-aminobenzamide
B3: GFB-109 (designed binder)
peptide: GDLD
modifications: linker N-C via 3‑aminomethyl‑5‑aminobenzamide; also: four loops on But-Calix calix[4]arene scaffold
B4: GFB-136 (designed binder)
peptide 1: GDDD
peptide 2: GDGY
modifications: also: 3 GDDD loops and 1 GDGY loop on But-Calix scaffold, linker to a chain's N/C-terminus via 3-aminomethyl-5-aminobenzamide
B5: GFB-119 (designed binder)
peptide: PDGD
modifications: linker N-C via 3‑aminomethyl‑5‑aminobenzamide; also: four loops on But-Calix scaffold
B6: GFB-133 (designed binder)
peptide: GDGY
modifications: linker N-C via 3‑aminomethyl‑5‑aminobenzamide; also: 3 GDGY loops on But-Calix scaffold, CO2H at fourth position
B7: GFB-106 (designed binder)
peptide: GDDD
modifications: linker N-C via 3‑aminomethyl‑5‑aminobenzamide; also: four loops on But-Calix calix[4]arene scaffold
B8: GFB-135 (designed binder)
peptide 1: GDGY
peptide 2: GDDD
modifications: also: 3 GDGY loops and 1 GDDD loop on But-Calix scaffold, linker to a chain's N/C-terminus via 3-aminomethyl-5-aminobenzamide
B9: GFB-112 (designed binder)
peptide: ADGD
modifications: linker N-C via 3‑aminomethyl‑5‑aminobenzamide; also: four loops on But-Calix calix[4]arene scaffold
B10: GFB-118 (designed binder)
peptide: [d2Nal]DGD
modifications: linker N-C via 3‑aminomethyl‑5‑aminobenzamide; also: four loops joined to But-Calix calix[4]arene scaffold
B11: GFB-132 (designed binder)
peptide 1: GDGY
peptide 2: GDDG
modifications: also: 3 GDGY loops and 1 GDDG loop on But-Calix scaffold, linker to a chain's N/C-terminus via 3-aminomethyl-5-aminobenzamide
B12: GFB-110 (designed binder)
peptide: GDAD
modifications: linker N-C via 3‑aminomethyl‑5‑aminobenzamide; also: four loops on But-Calix calix[4]arene scaffold
B13: GFB-128 (designed binder)
peptide: GDGY
modifications: linker N-C via 3‑aminomethyl‑5‑aminobenzamide; also: loops on DPM-2 scaffold
B14: GFB-121 (designed binder)
peptide: [dAbu]DGD
modifications: linker N-C via 3‑aminomethyl‑5‑aminobenzamide; also: four loops joined to But-Calix calix[4]arene scaffold
B15: GFB-108 (designed binder)
peptide: [dA]DGD
modifications: linker N-C via 3‑aminomethyl‑5‑aminobenzamide; also: four loops on But-Calix calix[4]arene scaffold
B16: GFB-137 (designed binder)
peptide 1: GDGY
peptide 2: GDDG
modifications: not fully specified; also: linker to a chain's N/C-terminus via 3-aminomethyl-5-aminobenzamide
B17: GFB-101 (designed binder)
peptide: GFGD
modifications: linker N-C via 3‑aminomethyl‑5‑aminobenzamide; also: four loops on O4-Calix calix[4]arene scaffold
B18: GFB-122 (designed binder)
peptide: GDDY
modifications: linker N-C via 3‑aminomethyl‑5‑aminobenzamide; also: four loops on But-Calix calix[4]arene scaffold
B19: GFB-105 (designed binder)
peptide: GDFD
modifications: linker N-C via 3‑aminomethyl‑5‑aminobenzamide; also: four loops on But-Calix calix[4]arene scaffold
B20: GFB-130 (designed binder)
peptide: GDDY
modifications: linker N-C via 3‑aminomethyl‑5‑aminobenzamide; also: loops on DPM-2 scaffold
B21: GFB-129 (designed binder)
peptide: GDDD
modifications: linker N-C via 3‑aminomethyl‑5‑aminobenzamide; also: loops on DPM-2 scaffold
B22: GFB-104 (designed binder)
peptide: GDGD
modifications: linker N-C via 3‑aminomethyl‑5‑aminobenzamide; also: four loops on O3-Calix calix[4]arene scaffold
B23: GFB-102 (designed binder)
peptide: GDFD
modifications: linker N-C via 3‑aminomethyl‑5‑aminobenzamide; also: four loops on O4-Calix calix[4]arene scaffold
B24: GFB-107 (designed binder)
peptide: GDGD
modifications: linker N-C via 3‑aminomethyl‑5‑aminobenzamide; also: four loops on But-Calix calix[4]arene scaffold

Molecular target: platelet derived growth factor PDGF-BB (UniProt P01127 82-190)
Test: cell-based or functional assay

platelet derived growth factor PDGF-BB, sequence (P01127 82-190 limits assumed): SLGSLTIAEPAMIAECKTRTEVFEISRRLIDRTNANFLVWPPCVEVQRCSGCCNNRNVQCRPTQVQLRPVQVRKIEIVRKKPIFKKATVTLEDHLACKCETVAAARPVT

Binder	IC50, PDGFR-Y-P	IC50, p42/Erk2	IC50, p42/Erk2: p42	IC50, p42/Erk2: p44
B1	5.8 µM	36 µM		
B2	1.9 µM		2.5 µM	2.6 µM
B3	7.5 µM	15 µM		
B4	3 µM		25 µM	24 µM
B5	20 µM	32 µM		
B6			3.2 µM	3 µM
B7	8 µM	33 µM		
B8	1.9 µM		3.2 µM	24 µM
B9	29 µM	26 µM		
B10	0.7 µM	1.2 µM		
B11	0.4 µM		2.9 µM	
B12	1.7 µM	7 µM		
B13		> 50 µM		
B14	5.6 µM	8.5 µM		
B15	9 µM	57 µM		
B16	0.4 µM		2.9 µM	
B17	> 500 µM	> 500 µM		
B18	1.7 µM	19 µM		

Molecular target: acidic fibroblast growth factor (aFGF) (UniProt P05230 16-155, limits assumed)
Test: cell-based or functional assay

acidic fibroblast growth factor (aFGF), sequence (P05230 16-155 limits assumed): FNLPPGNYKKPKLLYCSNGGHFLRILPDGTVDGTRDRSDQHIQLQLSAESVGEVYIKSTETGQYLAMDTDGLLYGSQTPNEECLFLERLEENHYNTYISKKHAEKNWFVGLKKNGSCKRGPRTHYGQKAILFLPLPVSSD

Binder	(IC50) Inhibition, p42	(IC50) Inhibition, p44	(IC50) Inhibition, p42 (mean)	(IC50) Inhibition, p44 (mean)
B1	63.4 µM per head; likely % and 67.6 µM per head; likely %	80.8 µM per head; likely % and 84.3 µM per head; likely %		
B19	66.4 µM per head; likely %	75.7 µM per head; likely %		
B2	54.8 µM per head; likely %	64.1 µM per head; likely %		
B3	68.3 µM per head; likely %	79.7 µM per head; likely %		
B4	73.1 µM per head; likely %	84.5 µM per head; likely %		
B5	62.6 µM per head; likely % and 72.1 µM per head; likely % and 47.8 µM per head; likely %	78.9 µM per head; likely % and 81.7 µM per head; likely % and 58.1 µM per head; likely %	60.8 µM per head; likely %	72.9 µM per head; likely %
B6		101 µM per head; likely %		
B8	44.1 µM per head; likely %	53.9 µM per head; likely %		
B9	59.7 µM per head; likely % and 40.2 µM per head; likely %	62.9 µM per head; likely % and 39.6 µM per head; likely %		
B10	20.6 µM per head; likely %	30.5 µM per head; likely %		
B11		50.2 µM per head; likely %		
B12	76.1 µM per head; likely % and 93 µM per head; likely %	85.2 µM per head; likely % and 98.9 µM per head; likely %		
B13		43.3 µM per head; likely %		
B20	78.9 µM per head; likely %	78.9 µM per head; likely %		
B14	8.7 µM per head; likely %	8.9 µM per head; likely %		
B15	67.8 µM per head; likely %	80.1 µM per head; likely %		
B16		19.9 µM per head; likely %		
B18	57.3 µM per head; likely %	71.6 µM per head; likely %		

Molecular target: insulin-like growth factor-1 (IGF-1) (UniProt P05019 49-118)
Test: cell-based or functional assay

insulin-like growth factor-1 (IGF-1), sequence (P05019 49-118 limits assumed): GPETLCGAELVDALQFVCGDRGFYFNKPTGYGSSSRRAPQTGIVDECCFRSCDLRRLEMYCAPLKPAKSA

Binder	% Inhibition at 100 µM, IGF1R-Y-P	% Inhibition at 100 µM, p42	% Inhibition at 100 µM, p44
B1	4.9%	17.1%	61.5%
B19	1.3%		
B2	16.8%	4.9%	53.5%
B3		68.3%	79.7%
B4	40.6%	15%	59.5%
B5	16.7%	29.7%	66.2%
B8	16.2%	0.8%	46.1%
B9	0.6%	-7.6%	30.4%
B10	1.5%	16.4%	55.2%
B13	-12%	-6.1%	38.2%
B14	33.8%	28.3%	62.1%
B15		67.8%	80.1%
B21	3.4%	2.8%	33.4%
B22	-28.4%		

Molecular target: vascular endothelial growth factor (VEGF) (UniProt P15692-4 27-191, limits assumed)
Test: cell-based or functional assay

vascular endothelial growth factor (VEGF), sequence (P15692 other isoform, or with tags, fused parts or gaps limits assumed): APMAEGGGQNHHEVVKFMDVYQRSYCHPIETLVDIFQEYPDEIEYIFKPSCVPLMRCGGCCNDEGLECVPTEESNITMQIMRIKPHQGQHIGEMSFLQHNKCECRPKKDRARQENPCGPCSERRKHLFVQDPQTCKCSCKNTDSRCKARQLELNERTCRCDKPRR

Binder	IC50, p42	IC50, p44	IC50, Flk-1-Y-P
B23	> 100 µM	> 100 µM	
B19	> 100 µM	> 100 µM	
B7	< 10 µM	< 10 µM	< 10 µM
B9	10 µM	10 µM	< 10 µM
B24	100 µM	100 µM	< 10 µM
B15	50 µM	50 µM	10 µM
B17	> 100 µM	> 100 µM	> 100 µM

— patent US20060084596A1 (UNIVERSITY OF SOUTH FLORIDA, published 2006)
